Laboratory results taken from publication PMC12524713.
pKd: −log10 of the molar value.

How the values were obtained:
[1] = target: SARS-CoV-2 3-chymotrypsin-like protease (3CL^pro) (SARS-CoV-2); assay: mass photometry; TwoMP mass photometer, proteins diluted in PBS to 10 nM, room temperature, 60 s; the monomer is too small to resolve
[2] = target: catalytic domain of matrix metalloproteinase-14 (MMP14) (human) (UniProt P50281); assay: SPR; cat-MMP14 amine-coupled on a CM5 chip (Biacore T200); 3CL^pro (0.062-20 uM) or PL^pro (0.041-10 uM) flowed in PBSP (20 mM phosphate pH 7.4, 137 mM NaCl, 2.7 mM KCl, 0.05% P20), 30 uL/min, 180 s association, 300 s dissociation, 25 C; 1:1 Langmuir kinetic fit, KD = kd/ka

## SARS-CoV-2 3-chymotrypsin-like protease (3CL^pro) (enzyme)
[1]
  stoichiometry N: 2
[2]
  pKd: 5.49
  koff: 0.0012 s⁻¹
  kon: 386 M⁻¹ s⁻¹
